Data as given in patent publication US10023484B2, “Use of peracetic acid/hydrogen peroxide and peroxide-reducing agents for treatment of drilling fluids, frac fluids, flowback water and disposal water” (Ecolab USA Inc., priority 2012, dated 2018).

Tests used:
[1] = Field application of catalase (ES 2000) in pond water: room temperature, sunlight, shielded (Example 22); format: physicochemical
Description: A field of use application was analyzed to determine efficacy of the peroxide-reducing catalase enzyme in pond waters under ambient conditions. Catalase (ES 2000) was used in a pond water source (370000 barrel (bbl.)) to reduce/eliminate H2O2 in a POAA peracid composition. The pond water when sampled contained both POAA and H2O2. The treatments analyzed were based on established laboratory data, which at 1 ppm use level selectively eliminated H2O2 to zero within 4 hours. […] Therefore, 100 gram samples of the pond water were used to add various levels of either 1 ppm catalase (Table 33) or 2 ppm catalase (Table 34).
The samples were then stored at various conditions identified: ambient room temperature, outside under sunlight, outside shielded from sunlight. The level of hydrogen peroxide was assayed at various times (shown at 0 hours and 2 hours) to check the functionality of the catalase peroxide-reducing agent. As referred to in the Tables, the following measurements are set forth as follows: EP1 V (ml 0.05N Na2S2O3) and EP2 V (ml 0.05N Na2S2O3).

[2] = test system: produced water samples (planktonic bacteria); assay: Planktonic kill study, ATP quantification assay; format: cell-based; conditions: PAA/H2O2 25 ppm
Description: Planktonic kill studies were performed as an evaluation of biocide efficiency for PAA/H2O2 and PAA/H2O2/Catalase applications. Briefly, produced water samples were used to test the kill efficiency of PAA/H2O2 at the following dosages: 25, 50, 75, 150 and 300 ppm PAA. Concentration of catalase was fixed at 1000 ppm. The contact time was set to 10 and 60 minutes. After contact time, bacterial enumeration was performed using ATP quantification assay. Bacterial enumeration was calculated at the end of the appropriate time and biocide efficacy determined by comparison to an untreated sample.

[3] = Catalase (ES2000) amount needed in treated water source, iodometric titration (Example 15); format: physicochemical
Description: Field of use applications were analyzed to determine the amount of a peroxide-reducing enzyme necessary to obtain desired concentrations of both peracid and hydrogen peroxide in a treated water source. EnviroSan (POAA) peracid composition was added to water to reach the targeted POAA concentrations set forth in Table 18, and the concentration of both POAA and H2O2 were confirmed by iodometric titration. Then catalase (ES2000) was added to the solution, and the sample was stored under ambient conditions. The concentration of POAA and H2O2 were monitored by the iodometric conditions.

[4] = Hydrogen peroxide reduction by catalase in 2%, 3%, 5% peracid compositions, iodometric assay (Example 13); format: physicochemical
Description: The concentration of peracid compositions was evaluated to determine the peroxide-reducing capability of enzymes. A catalase enzyme was evaluated for efficacy in reducing hydrogen peroxide at varying concentrations under increasingly concentrated peracid compositions. The commercially-available peracid (POAA) composition EnviroSan (Ecolab, Inc., St. Paul, Minn.) was evaluated using catalase enzymes added to 2%, 3%, and 5% peracid compositions. The catalase enzymes were added to the POAA solution and gently stirred under ambient conditions. After the addition of catalase, the stirring was discontinued, and the samples were taken for iodometric assay.

[5] = POAA and H2O2 loss with NiMo peroxide-reducing agent (Example 20); format: physicochemical; conditions: 10 g NiMo
Description: (§1) Various additional inorganic metals and metal compounds were further evaluated for use as peroxide decomposition catalysts (e.g. peroxide-reducing agents) according to the methods of the invention. The metals were provided as solid catalysts to POAA solutions.

[6] = POAA and H2O2 loss with Mo peroxide-reducing agent (Example 20); format: physicochemical; conditions: 10 g Mo
Description: as §1

[7] = POAA and H2O2 loss with CoMo peroxide-reducing agent (Example 20); format: physicochemical; conditions: 10 g CoMo
Description: as §1

[8] = POAA and H2O2 loss with NiW peroxide-reducing agent (Example 20); format: physicochemical; conditions: 10 g NiW
Description: as §1

[9] = 1 ppm catalase, Ambient Room, Time 0.00 hr
[10] = 1 ppm catalase, Ambient Room, Time 2.00 hr
[11] = 1 ppm catalase, Outside shield from the sunlight, Time 0.00 hr
[12] = 1 ppm catalase, Outside shield from the sunlight, Time 2.00 hr
[13] = 1 ppm catalase, Outside under the sunlight, Time 0.00 hr
[14] = 1 ppm catalase, Outside under the sunlight, Time 2.00 hr
[15] = 2 ppm catalase, Ambient Room, Time 0.00 hr
[16] = 2 ppm catalase, Ambient Room, Time 2.00 hr
[17] = 2 ppm catalase, Outside shield from the sunlight, Time 0.00 hr
[18] = 2 ppm catalase, Outside shield from the sunlight, Time 2.00 hr
[19] = 2 ppm catalase, Outside under the sunlight, Time 0.00 hr
[20] = 2 ppm catalase, Outside under the sunlight, Time 2.00 hr
[21] = 0.5 ppm catalase, series starting at 14.6 ppm POAA, 0 hr
[22] = 0.5 ppm catalase, series starting at 14.6 ppm POAA, 1 hr
[23] = 0.5 ppm catalase, series starting at 14.6 ppm POAA, 2 hr
[24] = 0.5 ppm catalase, series starting at 14.6 ppm POAA, 3.6 hr
[25] = 0.5 ppm catalase, series starting at 31.1 ppm POAA, 0 hr
[26] = 0.5 ppm catalase, series starting at 31.1 ppm POAA, 1 hr
[27] = 0.5 ppm catalase, series starting at 31.1 ppm POAA, 2 hr
[28] = 0.5 ppm catalase, series starting at 31.1 ppm POAA, 3.6 hr
[29] = 1.0 ppm catalase, series starting at 14.8 ppm POAA, 0 hr
[30] = 1.0 ppm catalase, series starting at 14.8 ppm POAA, 1 hr
[31] = 1.0 ppm catalase, series starting at 14.8 ppm POAA, 2 hr
[32] = 1.0 ppm catalase, series starting at 14.8 ppm POAA, 3.6 hr
[33] = 1.0 ppm catalase, series starting at 30.1 ppm POAA, 0 hr
[34] = 1.0 ppm catalase, series starting at 30.1 ppm POAA, 1 hr
[35] = 1.0 ppm catalase, series starting at 30.1 ppm POAA, 2 hr
[36] = 1.0 ppm catalase, series starting at 30.1 ppm POAA, 3.6 hr
[37] = 2% POAA, 1500 ppm Catalase, 0 min.
[38] = 2% POAA, 1500 ppm Catalase, 6.5 min.
[39] = 3% POAA, 1500 ppm Catalase, 0 min.
[40] = 3% POAA, 1500 ppm Catalase, 6.5 min.
[41] = 3% POAA, 1500 ppm Catalase, 10 min.
[42] = 3% POAA, 1500 ppm Catalase, 15 min.
[43] = 3% POAA, 2500 ppm Catalase, 0 min.
[44] = 3% POAA, 2500 ppm Catalase, 6.5 min.
[45] = 3% POAA, 2500 ppm Catalase, 10 min.
[46] = 3% POAA, 2500 ppm Catalase, 15 min.
[47] = 5% POAA, 1500 ppm Catalase, 0 min.
[48] = 5% POAA, 1500 ppm Catalase, 6.5 min.

Molecule: Catalase
- H2O2 [1, 9]: 6.8 ppm
- POAA [1, 9]: 5.7 ppm
- H2O2 [1, 10]: 1.3 ppm
- POAA [1, 10]: 5.7 ppm
- H2O2 [1, 11]: 6.8 ppm
- POAA [1, 11]: 5.7 ppm
- H2O2 [1, 12]: 0.9 ppm
- POAA [1, 12]: 5.7 ppm
- H2O2 [1, 13]: 6.8 ppm
- POAA [1, 13]: 5.7 ppm
- H2O2 [1, 14]: 6.8 ppm
- POAA [1, 14]: 4.75 ppm
- H2O2 [1, 15]: 6.8 ppm
- POAA [1, 15]: 5.7 ppm
- H2O2 [1, 16]: 0.0 ppm
- POAA [1, 16]: 5.7 ppm
- H2O2 [1, 17]: 6.8 ppm
- POAA [1, 17]: 5.7 ppm
- H2O2 [1, 18]: 0.0 ppm
- POAA [1, 18]: 5.7 ppm
- H2O2 [1, 19]: 6.8 ppm
- POAA [1, 19]: 5.7 ppm
- H2O2 [1, 20]: 4.3 ppm
- POAA [1, 20]: 4.75 ppm
- increase of biocide efficiency by addition of 1000 ppm catalase ([2]; after 10 minutes): 48%
- increase of biocide efficiency by addition of 1000 ppm catalase ([2]; after 60 minutes): 23%
- H2O2 (ppm) [3, 21]: 12.0 ppm
- POAA (ppm) [3, 21]: 14.6 ppm
- H2O2 (ppm) [3, 22]: 7.5 ppm
- POAA (ppm) [3, 22]: 15.0 ppm
- H2O2 (ppm) [3, 23]: 6.5 ppm
- POAA (ppm) [3, 23]: 14.3 ppm
- H2O2 (ppm) [3, 24]: 1.8 ppm
- POAA (ppm) [3, 24]: 14.2 ppm
- H2O2 (ppm) [3, 25]: 22.8 ppm
- POAA (ppm) [3, 25]: 31.1 ppm
- H2O2 (ppm) [3, 26]: 12.2 ppm
- POAA (ppm) [3, 26]: 32.0 ppm
- H2O2 (ppm) [3, 27]: 7.8 ppm
- POAA (ppm) [3, 27]: 29.2 ppm
- H2O2 (ppm) [3, 28]: 3.4 ppm
- POAA (ppm) [3, 28]: 30.6 ppm
- H2O2 (ppm) [3, 29]: 12.6 ppm
- POAA (ppm) [3, 29]: 14.8 ppm
- H2O2 (ppm) [3, 30]: 3.7 ppm
- POAA (ppm) [3, 30]: 14.6 ppm
- H2O2 (ppm) [3, 31]: 1.1 ppm
- POAA (ppm) [3, 31]: 14.2 ppm
- H2O2 (ppm) [3, 32]: 0.4 ppm
- POAA (ppm) [3, 32]: 15.9 ppm
- H2O2 (ppm) [3, 33]: 23.3 ppm
- POAA (ppm) [3, 33]: 30.1 ppm
- H2O2 (ppm) [3, 34]: 7.6 ppm
- POAA (ppm) [3, 34]: 31.0 ppm
- H2O2 (ppm) [3, 35]: 2.3 ppm
- POAA (ppm) [3, 35]: 29.6 ppm
- H2O2 (ppm) [3, 36]: 0.0 ppm
- POAA (ppm) [3, 36]: 29.3 ppm
- H2O2 [4, 37]: 1.36% H2O2
- POAA [4, 37]: 2.0% POAA
- H2O2 [4, 38]: 0.08% H2O2
- POAA [4, 38]: 2.05% POAA
- H2O2 [4, 39]: 2.04% H2O2
- POAA [4, 39]: 3.0% POAA
- H2O2 [4, 40]: 0.33% H2O2
- POAA [4, 40]: 2.97% POAA
- H2O2 [4, 41]: 0.23% H2O2
- POAA [4, 41]: 2.83% POAA
- H2O2 [4, 42]: 0.21% H2O2
- POAA [4, 42]: 2.95% POAA
- H2O2 [4, 43]: 2.04% H2O2
- POAA [4, 43]: 2.0% POAA
- H2O2 [4, 44]: 0.33% H2O2
- POAA [4, 44]: 2.99% POAA
- H2O2 [4, 45]: 0.23% H2O2
- POAA [4, 45]: 2.95% POAA
- H2O2 [4, 46]: 0.21% H2O3
- POAA [4, 46]: 2.87% POAA
- H2O2 [4, 47]: 3.40% H2O2
- POAA [4, 47]: 5.0% POAA
- H2O2 [4, 48]: 3.81% H2O2
- POAA [4, 48]: 4.96% POAA

Molecule: OO [H2O2]
- H2O2 Concentration ([5]; Time 0): 1615
- H2O2 Concentration ([5]; Time 15): 1581
- H2O2 Concentration ([5]; Time 30): 1555.5
- H2O2 Concentration ([5]; Time 45): 1530
- H2O2 Concentration ([5]; Time 60): 1496
- H2O2 Concentration ([6]; Time 0): 1615
- H2O2 Concentration ([6]; Time 15): 1334.5
- H2O2 Concentration ([6]; Time 30): 1181.5
- H2O2 Concentration ([6]; Time 45): 986
- H2O2 Concentration ([6]; Time 60): 841.5
- H2O2 Concentration ([7]; Time 0): 1615
- H2O2 Concentration ([7]; Time 15): 1343
- H2O2 Concentration ([7]; Time 30): 1156
- H2O2 Concentration ([7]; Time 45): 994.5
- H2O2 Concentration ([7]; Time 60): 841.5
- H2O2 Concentration ([8]; Time 0): 1615
- H2O2 Concentration ([8]; Time 15): 1581
- H2O2 Concentration ([8]; Time 30): 1598
- H2O2 Concentration ([8]; Time 45): 1615
- H2O2 Concentration ([8]; Time 60): 1615
